The target of assay [1] is Monoclonal antibody against the SARS-CoV-2 Spike protein (A02038, Genscript).
Assay [2] has as its target Monoclonal antibody against the SARS-CoV-2 Nucleocapsid protein (A02039, Genscript).
For assay [3], the target named is T1, Recombinant SARS-CoV-2 Spike protein antigen (Z03501, Genscript) (SARS-CoV-2, UniProt P0DTC2 16-685).
T1 construct: also called S antigen; S protein antigen
Put plainly: dot blot dipstick, gold nanoparticles with fusion protein and no antibody.

For assay [4], the target named is T2, Recombinant SARS-CoV-2 Nucleocapsid protein antigen (Z03488, Genscript) (SARS-CoV-2, UniProt P0DTC9 1-419).
T2 construct: also called N protein antigen; Nucleocapsid antigen
Described as above.

B1: Gold-binding fusion protein EMT-003 (Protein G' - linker - gold binding protein) (other)
chain: MTYKLILNGKTLKGETTTEAVDAATAEKVFKQYANDNGVDGEWTYDDATKTFTVTEKPEVIDASELTPAVTTYKLVINGKTLKGETTTEAVDAATAEKVFKQYANDNGVDGEWTYDDATKTFTVTEKPEVIDASELTPAVTTYKLVINGKTLKGETTTKAVDAETAEKAFKQYANDNGVDGVWTYDDATKTFTVTEGGGGSGGGGSGGGGSASGGGMHGKTQATSGTIQSMHGKTQATSGTIQSMHGKTQATSGTIQSMHGKTQATSGTIQSMHGKTQATSGTIQSMHGKTQATSGTIQSMHGKTQATSGTIQS
notes: also called EMT-03; gold fusion protein
The Kd is the constant that tells how readily two partners part at equilibrium. Low values mean tighter binding, high ones weaker binding. For orientation: koff means a measure of how fast the partners let go of each other. Higher therefore signals fast dissociation. As usually defined, the kon is a measure of how fast the partners come together. A lower kon goes with slow association. Consider B1, for which, in assay [1], the Kd came out at 0.192 nM, the off-rate (koff) was 0.000103 s⁻¹ and the on-rate (kon) was found to be 537000 M⁻¹ s⁻¹. In assay [2], this molecule came in with a Kd of 0.258 nM, an off-rate (koff) of 0.000149 s⁻¹ and a kon of 577000 M⁻¹ s⁻¹. For the same molecule, the binding result in assay [3] was “no binding (tested: 0.5 µg antigen spotted)”. In addition, the binding result in assay [4] is “no binding (tested: 0.5 µg antigen spotted)”.
